# Positions count from the first letter of the chain named.
# T1: KAE1;BUD32 S163R;CGI121;PCC1 (Arabidopsis thaliana;Arabidopsis …, UniProt O49653;Q94K14;Q6NMZ4;Q8GWD7 1-353;1-226;1-172;1-96, |S163R||)
# T1 sequence 1: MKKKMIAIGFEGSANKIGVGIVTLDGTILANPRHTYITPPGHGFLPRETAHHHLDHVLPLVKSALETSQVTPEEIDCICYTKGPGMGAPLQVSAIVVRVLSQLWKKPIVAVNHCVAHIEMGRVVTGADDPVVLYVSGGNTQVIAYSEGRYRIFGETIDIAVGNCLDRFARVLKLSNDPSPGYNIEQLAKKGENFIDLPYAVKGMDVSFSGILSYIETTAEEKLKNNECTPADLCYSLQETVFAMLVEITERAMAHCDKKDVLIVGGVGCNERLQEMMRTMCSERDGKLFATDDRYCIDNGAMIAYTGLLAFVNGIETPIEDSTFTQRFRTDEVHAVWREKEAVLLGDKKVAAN
# T1 sequence 2: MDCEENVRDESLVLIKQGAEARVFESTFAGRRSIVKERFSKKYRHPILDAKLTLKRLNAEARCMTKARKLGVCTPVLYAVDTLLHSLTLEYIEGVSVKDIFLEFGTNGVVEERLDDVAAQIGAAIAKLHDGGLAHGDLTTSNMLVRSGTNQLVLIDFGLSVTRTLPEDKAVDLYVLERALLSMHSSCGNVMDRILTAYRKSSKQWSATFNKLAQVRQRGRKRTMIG
# T1 sequence 3: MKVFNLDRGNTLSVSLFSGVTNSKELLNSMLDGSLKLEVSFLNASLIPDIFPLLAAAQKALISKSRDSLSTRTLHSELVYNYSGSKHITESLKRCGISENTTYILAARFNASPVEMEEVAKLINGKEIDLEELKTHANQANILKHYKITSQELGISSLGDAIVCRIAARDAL
# T1 sequence 4: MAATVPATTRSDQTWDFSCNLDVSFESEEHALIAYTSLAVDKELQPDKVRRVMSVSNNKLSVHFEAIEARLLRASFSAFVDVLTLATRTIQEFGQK
# T2: KAE1 mutant-1;BUD32;CGI121;PCC1 (Arabidopsis thaliana;Arabidopsis …, UniProt O49653;Q94K14;Q6NMZ4;Q8GWD7 1-353;1-226;1-172;1-96, Y36R;I37K;T38R;P39R;P40R;G41W;H42D|||)
# T2 sequence 1: T1 sequence 1 with Y36R, I37K, T38R, P39R, P40R, G41W, H42D
# T2 sequence 2: T1 sequence 2 with R163S
# T2 sequence 3: T1 sequence 3
# T2 sequence 4: T1 sequence 4
# T3: KAE1;BUD32 K55E;CGI121;PCC1 (Arabidopsis thaliana;Arabidopsis …, UniProt O49653;Q94K14;Q6NMZ4;Q8GWD7 1-353;1-226;1-172;1-96, |K55E||)
# T3 sequence 1: T1 sequence 1
# T3 sequence 2: T1 sequence 2 with K55E, R163S
# T3 sequence 3: T1 sequence 3
# T3 sequence 4: T1 sequence 4
# B1: 5'-6FAM-tRNAArgCCU (structured_RNA)
# RNA: GCGCCUGUAGCUCAGUGGAUAGAGCGUCUGUUUCCUAAGCAGAAGGUCGUAGGUUCGACCCCUACCUGGCGCGCCA
# Columns and labels:
# Assay in all cases: MST; MST: 20 mM PBS pH 7.5, 300 mM NaCl, 0.05% Tween 20, 25 C, 50 nM RNA; EMSA: 20 mM Tris-HCl pH 7.5, 300 mM NaCl, 5 mM b-mercaptoethanol, 20% glycerol, agarose gel in Tris-glycine pH 8.0 (8.5 for FAM-RNA), 4 C
# [1] = biological target: T1, KAE1;BUD32 S163R;CGI121;PCC1; details: protein: recombinant;recombinant;recombinant;recombinant; tags: none (6His on partner PCC1);;6His (C-term);6His (C-term); chain copies: 2;2;2;2; label: 5' 6-FAM; tRNA cloverleaf
# [2] = biological target: T2, KAE1 mutant-1;BUD32;CGI121;PCC1; details: protein: recombinant;recombinant;recombinant;recombinant; tags: ;none (6His on partner CGI121);6His (C-term);6His (C-term); chain copies: 2;2;2;2; label: 5' 6-FAM; tRNA cloverleaf
# [3] = biological target: T3, KAE1;BUD32 K55E;CGI121;PCC1; details: protein: recombinant;recombinant;recombinant;recombinant; tags: none (6His on partner PCC1);;6His (C-term);6His (C-term); chain copies: 2;2;2;2; label: 5' 6-FAM; tRNA cloverleaf
binder,measurement,setting,value
B1,Kd,[1],330 ± 11.1 µM
same,Kd,[2],5.27 ± 1.2 µM
same,Kd,[3],104 ± 15.2 µM

# — paper PMC11077089, “Molecular basis of A. thaliana KEOPS complex in biosynthesizing tRNA t6A”
